For one data set, the target named is T1, Human C2, P06681.
T1 chain: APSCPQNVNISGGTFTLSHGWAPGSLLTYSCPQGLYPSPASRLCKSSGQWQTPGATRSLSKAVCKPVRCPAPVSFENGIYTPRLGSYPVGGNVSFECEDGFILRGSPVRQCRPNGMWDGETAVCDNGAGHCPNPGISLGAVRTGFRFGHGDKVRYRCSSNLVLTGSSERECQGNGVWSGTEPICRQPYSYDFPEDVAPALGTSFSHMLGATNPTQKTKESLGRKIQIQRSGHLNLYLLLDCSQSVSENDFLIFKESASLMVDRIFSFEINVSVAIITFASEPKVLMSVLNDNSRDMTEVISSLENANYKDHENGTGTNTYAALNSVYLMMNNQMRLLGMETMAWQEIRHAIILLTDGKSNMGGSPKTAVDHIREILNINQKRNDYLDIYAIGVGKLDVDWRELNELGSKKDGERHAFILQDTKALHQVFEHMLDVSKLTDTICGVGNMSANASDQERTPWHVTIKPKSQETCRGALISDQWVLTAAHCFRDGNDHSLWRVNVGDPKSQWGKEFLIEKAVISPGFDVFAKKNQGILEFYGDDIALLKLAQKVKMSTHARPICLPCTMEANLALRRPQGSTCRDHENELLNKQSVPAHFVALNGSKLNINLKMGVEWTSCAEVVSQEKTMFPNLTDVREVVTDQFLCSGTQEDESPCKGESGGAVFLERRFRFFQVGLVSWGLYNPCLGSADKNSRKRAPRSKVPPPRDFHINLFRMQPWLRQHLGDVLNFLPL

Data set [1] has as its target T2, alpha-2-macroglobulin, P01023.
T2 chain: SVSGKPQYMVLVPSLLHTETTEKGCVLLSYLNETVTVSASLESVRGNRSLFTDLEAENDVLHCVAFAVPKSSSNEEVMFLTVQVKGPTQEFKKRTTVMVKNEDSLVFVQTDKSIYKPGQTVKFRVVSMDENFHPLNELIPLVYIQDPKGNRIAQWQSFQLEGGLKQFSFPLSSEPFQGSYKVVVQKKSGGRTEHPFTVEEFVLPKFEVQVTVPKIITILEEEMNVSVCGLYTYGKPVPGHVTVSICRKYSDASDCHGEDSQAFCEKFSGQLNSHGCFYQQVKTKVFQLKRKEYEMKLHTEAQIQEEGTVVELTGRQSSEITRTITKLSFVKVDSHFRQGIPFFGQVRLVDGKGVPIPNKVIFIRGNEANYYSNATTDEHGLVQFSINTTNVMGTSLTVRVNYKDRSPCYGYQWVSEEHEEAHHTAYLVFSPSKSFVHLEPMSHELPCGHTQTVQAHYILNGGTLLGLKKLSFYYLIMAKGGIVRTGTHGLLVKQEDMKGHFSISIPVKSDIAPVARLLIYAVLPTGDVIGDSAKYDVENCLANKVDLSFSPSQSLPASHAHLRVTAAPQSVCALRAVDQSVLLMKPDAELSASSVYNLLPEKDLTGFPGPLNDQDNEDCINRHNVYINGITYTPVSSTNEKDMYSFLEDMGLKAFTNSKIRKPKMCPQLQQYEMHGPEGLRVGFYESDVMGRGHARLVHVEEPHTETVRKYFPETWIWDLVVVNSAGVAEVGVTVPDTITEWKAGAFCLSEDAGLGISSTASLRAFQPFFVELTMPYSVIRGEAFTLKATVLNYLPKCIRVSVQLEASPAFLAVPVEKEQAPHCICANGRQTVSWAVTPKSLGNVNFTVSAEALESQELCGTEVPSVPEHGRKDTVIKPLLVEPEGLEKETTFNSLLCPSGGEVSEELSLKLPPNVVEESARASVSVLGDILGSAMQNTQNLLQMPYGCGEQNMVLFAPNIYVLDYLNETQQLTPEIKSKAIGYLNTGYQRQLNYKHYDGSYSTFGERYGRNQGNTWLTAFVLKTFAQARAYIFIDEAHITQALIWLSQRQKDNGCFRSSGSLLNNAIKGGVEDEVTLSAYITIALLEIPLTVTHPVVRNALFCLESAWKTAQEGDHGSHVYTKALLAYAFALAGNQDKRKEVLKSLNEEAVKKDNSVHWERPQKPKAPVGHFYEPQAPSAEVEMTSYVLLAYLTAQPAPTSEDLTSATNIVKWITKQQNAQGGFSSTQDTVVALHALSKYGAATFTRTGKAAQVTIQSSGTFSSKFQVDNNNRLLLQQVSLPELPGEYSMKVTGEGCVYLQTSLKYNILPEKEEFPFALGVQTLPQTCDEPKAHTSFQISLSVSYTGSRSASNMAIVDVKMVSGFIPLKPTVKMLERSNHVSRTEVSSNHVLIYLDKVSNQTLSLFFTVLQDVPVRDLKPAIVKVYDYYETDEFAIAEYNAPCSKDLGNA

In data set [2] the target is T3, C1r CCP1-CCP2-SP S654A, P00736.
T3 chain: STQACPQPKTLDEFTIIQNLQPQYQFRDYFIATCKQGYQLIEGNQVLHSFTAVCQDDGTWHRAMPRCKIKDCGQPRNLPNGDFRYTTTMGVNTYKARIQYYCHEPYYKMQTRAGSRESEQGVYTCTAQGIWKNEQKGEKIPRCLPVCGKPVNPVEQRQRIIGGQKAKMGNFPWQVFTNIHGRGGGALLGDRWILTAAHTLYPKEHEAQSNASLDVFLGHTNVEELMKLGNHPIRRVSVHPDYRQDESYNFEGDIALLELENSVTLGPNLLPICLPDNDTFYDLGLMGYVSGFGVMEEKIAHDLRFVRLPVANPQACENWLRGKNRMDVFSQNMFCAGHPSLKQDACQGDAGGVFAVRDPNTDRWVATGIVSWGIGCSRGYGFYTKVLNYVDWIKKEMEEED

In data set [3] the target is T4, C1r CCP2-SP S654A, P00736.
T4 chain: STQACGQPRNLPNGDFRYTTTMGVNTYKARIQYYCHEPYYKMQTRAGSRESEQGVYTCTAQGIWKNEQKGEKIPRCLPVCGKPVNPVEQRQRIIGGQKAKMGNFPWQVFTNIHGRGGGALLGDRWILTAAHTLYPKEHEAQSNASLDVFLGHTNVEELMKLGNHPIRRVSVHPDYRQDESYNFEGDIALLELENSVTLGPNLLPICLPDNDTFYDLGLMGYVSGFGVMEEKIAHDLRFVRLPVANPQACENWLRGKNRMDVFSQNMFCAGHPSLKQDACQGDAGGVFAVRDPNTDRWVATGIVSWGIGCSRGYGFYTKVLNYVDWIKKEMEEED

The target in a further data set is T5, C1r SP S654A, P00736.
T5 chain: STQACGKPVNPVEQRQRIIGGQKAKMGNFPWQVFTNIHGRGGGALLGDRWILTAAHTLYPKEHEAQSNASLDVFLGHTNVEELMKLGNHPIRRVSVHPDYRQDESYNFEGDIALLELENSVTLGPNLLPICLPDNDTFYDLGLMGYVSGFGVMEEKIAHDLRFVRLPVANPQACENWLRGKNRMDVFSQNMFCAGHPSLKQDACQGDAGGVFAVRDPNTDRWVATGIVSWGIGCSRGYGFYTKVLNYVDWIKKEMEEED

The next data set concerns the target T6, Proenzyme C1s, P09871.
T6 chain: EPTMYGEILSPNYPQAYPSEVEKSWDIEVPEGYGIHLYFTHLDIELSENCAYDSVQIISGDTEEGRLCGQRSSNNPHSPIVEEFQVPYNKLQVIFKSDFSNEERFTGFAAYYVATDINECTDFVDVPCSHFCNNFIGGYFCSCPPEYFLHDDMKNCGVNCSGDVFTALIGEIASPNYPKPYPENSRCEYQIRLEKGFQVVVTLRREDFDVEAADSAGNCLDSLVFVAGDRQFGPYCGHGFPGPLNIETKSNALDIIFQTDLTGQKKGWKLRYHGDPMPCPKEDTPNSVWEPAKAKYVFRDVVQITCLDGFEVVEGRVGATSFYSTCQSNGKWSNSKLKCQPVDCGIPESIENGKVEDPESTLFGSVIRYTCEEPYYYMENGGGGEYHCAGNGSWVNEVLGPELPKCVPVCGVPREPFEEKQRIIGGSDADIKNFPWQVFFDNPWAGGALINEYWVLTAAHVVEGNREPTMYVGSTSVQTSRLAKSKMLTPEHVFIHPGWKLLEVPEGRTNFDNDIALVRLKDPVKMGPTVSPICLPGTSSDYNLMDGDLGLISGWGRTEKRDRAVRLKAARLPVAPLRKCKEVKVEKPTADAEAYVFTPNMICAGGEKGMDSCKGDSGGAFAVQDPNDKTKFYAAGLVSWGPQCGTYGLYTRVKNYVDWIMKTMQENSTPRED

This is an account of results in US20090042248.

Chain of Human C4, P0C0L4 (P0C0L4 whole entry, looked up): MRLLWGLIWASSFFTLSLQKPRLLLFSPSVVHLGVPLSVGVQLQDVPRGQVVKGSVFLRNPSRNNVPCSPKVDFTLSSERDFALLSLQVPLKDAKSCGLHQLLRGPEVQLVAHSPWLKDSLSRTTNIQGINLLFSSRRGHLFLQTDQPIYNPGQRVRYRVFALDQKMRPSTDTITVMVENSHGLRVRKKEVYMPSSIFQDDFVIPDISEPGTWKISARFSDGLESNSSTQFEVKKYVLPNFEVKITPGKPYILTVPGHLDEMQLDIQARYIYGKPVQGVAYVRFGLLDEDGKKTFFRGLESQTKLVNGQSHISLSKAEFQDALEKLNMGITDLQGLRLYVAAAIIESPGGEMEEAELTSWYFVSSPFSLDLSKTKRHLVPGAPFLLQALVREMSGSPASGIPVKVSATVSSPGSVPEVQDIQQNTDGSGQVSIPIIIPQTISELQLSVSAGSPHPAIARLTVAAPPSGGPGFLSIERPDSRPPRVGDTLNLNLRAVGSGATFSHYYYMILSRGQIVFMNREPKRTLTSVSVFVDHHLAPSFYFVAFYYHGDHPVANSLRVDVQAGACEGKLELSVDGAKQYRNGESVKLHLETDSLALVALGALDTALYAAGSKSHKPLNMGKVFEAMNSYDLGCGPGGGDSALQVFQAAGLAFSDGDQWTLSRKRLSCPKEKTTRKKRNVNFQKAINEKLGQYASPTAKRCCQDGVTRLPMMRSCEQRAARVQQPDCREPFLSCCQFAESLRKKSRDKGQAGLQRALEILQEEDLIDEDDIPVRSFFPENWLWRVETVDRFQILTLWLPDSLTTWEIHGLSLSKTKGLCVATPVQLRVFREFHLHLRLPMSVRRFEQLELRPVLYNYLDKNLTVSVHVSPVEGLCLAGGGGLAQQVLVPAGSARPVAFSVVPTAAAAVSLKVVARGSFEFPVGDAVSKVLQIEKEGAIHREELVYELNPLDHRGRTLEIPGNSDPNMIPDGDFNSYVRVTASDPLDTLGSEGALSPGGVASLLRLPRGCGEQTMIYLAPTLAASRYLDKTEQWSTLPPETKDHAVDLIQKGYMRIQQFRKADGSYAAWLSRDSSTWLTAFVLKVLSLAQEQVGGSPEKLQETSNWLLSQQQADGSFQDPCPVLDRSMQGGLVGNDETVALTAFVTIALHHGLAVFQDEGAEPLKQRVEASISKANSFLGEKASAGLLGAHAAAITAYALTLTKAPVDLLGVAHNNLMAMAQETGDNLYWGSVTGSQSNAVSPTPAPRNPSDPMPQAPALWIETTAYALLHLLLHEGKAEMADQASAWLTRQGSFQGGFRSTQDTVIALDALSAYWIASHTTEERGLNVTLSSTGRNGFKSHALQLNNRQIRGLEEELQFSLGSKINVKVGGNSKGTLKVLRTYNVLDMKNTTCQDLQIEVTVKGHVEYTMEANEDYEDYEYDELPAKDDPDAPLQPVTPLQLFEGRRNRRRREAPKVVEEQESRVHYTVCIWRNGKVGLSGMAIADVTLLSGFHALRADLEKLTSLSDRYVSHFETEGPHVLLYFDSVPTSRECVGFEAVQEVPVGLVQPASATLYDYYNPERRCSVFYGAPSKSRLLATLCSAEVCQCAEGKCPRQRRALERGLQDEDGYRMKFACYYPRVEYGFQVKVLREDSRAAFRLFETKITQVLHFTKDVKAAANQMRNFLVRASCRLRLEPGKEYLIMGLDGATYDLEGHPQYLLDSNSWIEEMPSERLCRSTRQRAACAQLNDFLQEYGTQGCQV

B1: MASP-2 CCP2-SP fragment (protein)
chain 1: ASMTIVDCGPPDDLPSGRVEYITGPGVTTYKAVIQYSCEETFYTMKVNDGKYVCEADGFWTSSKGEKSLPVCEPVCGLSARTTGGR
chain 2: IYGGQKAKPGDFPWQVLILGGTTAAGALLYDNWVLTAAHAVYEQKHDASALDIRMGTLKRLSPHYTQAWSEAVFIHEGYTHDAGFDNDIALIKLNNKVVINSNITPICLPRKEAESFMRTDDIGTASGWGLTQRGFLARNLMYVDIPIVDHQKCTAAYEKPPYPRGSVTANMLCAGLESGGKDSCRGDSGGALVFLDSETERWFVGGIVSWGSMNCGEAGQYGVYTKVINYIPWIENIISDF
As for B1, in the data set with Human C2, P06681, the KM, C2 cleavage was found to be 2.7 µM; the kcat, C2 cleavage was found to be 3 s⁻¹; the kcat/KM, C2 cleavage was found to be 1.3e+06 M⁻¹ s⁻¹. For the same protein, in the data set with Human C4, P0C0L4, the KM, C4 cleavage came out at 0.4 µM; the “fold increase in the kcat/KM value of C4 cleavage against the SP domain alone” value is recorded as “a 44-fold increase in the kcat/KM value”; the kcat, C4 cleavage was found to be 2 s⁻¹; the kcat/KM, C4 cleavage worked out at 5.7e+06 M⁻¹ s⁻¹. In data set [1], the “molar excess needed to abolish cleavage of complement substrates” value is “or with a large molar excess (40 fold) of alpha-2-macroglobulin”.

B2: MASP-2 SP fragment (protein)
chain 1: ASMTPVCGLSARTTGGR
chain 2: IYGGQKAKPGDFPWQVLILGGTTAAGALLYDNWVLTAAHAVYEQKHDASALDIRMGTLKRLSPHYTQAWSEAVFIHEGYTHDAGFDNDIALIKLNNKVVINSNITPICLPRKEAESFMRTDDIGTASGWGLTQRGFLARNLMYVDIPIVDHQKCTAAYEKPPYPRGSVTANMLCAGLESGGKDSCRGDSGGALVFLDSETERWFVGGIVSWGSMNCGEAGQYGVYTKVINYIPWIENIISDF
For B2, in the data set with Human C2, P06681, the KM, C2 cleavage worked out at 3.2 µM; the kcat, C2 cleavage amounted to 3.9 s⁻¹; the kcat/KM, C2 cleavage was 2.5e+06 M⁻¹ s⁻¹. Further, in the data set with Human C4, P0C0L4, the KM, C4 cleavage was 2 µM; the kcat, C4 cleavage is 0.2 s⁻¹; the kcat/KM, C4 cleavage stood at 130000 M⁻¹ s⁻¹. The “molar excess needed to abolish cleavage of complement substrates” value in data set [1] is listed as “or with a large molar excess (40 fold) of alpha-2-macroglobulin”.

B3: C1r SP fragment (wild-type) (protein)
chain 1: STQACGKPVNPVEQRQR
chain 2: IIGGQKAKMGNFPWQVFTNIHGRGGGALLGDRWILTAAHTLYPKEHEAQSNASLDVFLGHTNVEELMKLGNHPIRRVSVHPDYRQDESYNFEGDIALLELENSVTLGPNLLPICLPDNDTFYDLGLMGYVSGFGVMEEKIAHDLRFVRLPVANPQACENWLRGKNRMDVFSQNMFCAGHPSLKQDACQGDSGGVFAVRDPNTDRWVATGIVSWGIGCSRGYGFYTKVLNYVDWIKKEMEEED
B3: the kcat/KM, cleavage of S654A zymogen in data set [2] is 72000 s^-1M^-1; in data set [3], 75000 s^-1M^-1; in the data set with C1r SP S654A, P00736 it was 71000 s^-1M^-1. In the data set with Proenzyme C1s, P09871, the kcat/KM, C1s cleavage worked out at 28000 s^-1M^-1.

B4: C1r CCP2-SP fragment (wild-type) (protein)
chain 1: STQACGQPRNLPNGDFRYTTTMGVNTYKARIQYYCHEPYYKMQTRAGSRESEQGVYTCTAQGIWKNEQKGEKIPRCLPVCGKPVNPVEQRQR
chain 2: IIGGQKAKMGNFPWQVFTNIHGRGGGALLGDRWILTAAHTLYPKEHEAQSNASLDVFLGHTNVEELMKLGNHPIRRVSVHPDYRQDESYNFEGDIALLELENSVTLGPNLLPICLPDNDTFYDLGLMGYVSGFGVMEEKIAHDLRFVRLPVANPQACENWLRGKNRMDVFSQNMFCAGHPSLKQDACQGDSGGVFAVRDPNTDRWVATGIVSWGIGCSRGYGFYTKVLNYVDWIKKEMEEED
Regarding B4, the kcat/KM, cleavage of S654A zymogen in data set [2] came out at 74000 s^-1M^-1; in data set [3], 130000 s^-1M^-1; with C1r SP S654A, P00736, 68000 s^-1M^-1. In addition, the kcat/KM, C1s cleavage with Proenzyme C1s, P09871 stood at 208000 s^-1M^-1.
